# According to patent US20230242598A1, “FUNCTIONAL POLYPEPTIDES AND USE THEREOF” (priority 2020, published 2023):
# Where two headings read alike, the source gives them in different places.
# Legend:
# [1] = system: L1210; conditions: Kobayashi et al. 1994; cited from earlier work
# [2] = system: smooth muscle cell; conditions: Frew et al. 2008; cited from earlier work
# [3] = system: mice; conditions: i.p.; cited from earlier work
# [4] = system: HeLa; conditions: cited from earlier work
# [5] = system: HeLa cells; assay: Cytotoxicity of SOR, Cell Counting Kit-8 (WST-8); format: cell-based, human; conditions: ratio of cytotoxicity, HeLa versus L1210
# Experimental: The cytotoxicity of SOR was evaluated using L1210 (RBRC-RCB2844, Riken) and HeLa (RBRC-RCB0007, Riken) cells. RPMI1640 medium supplemented with 10% FBS was used for the L1210 cells, and EMEM supplemented with 10% FBS was used for the HeLa cells. The cells were precultured for 3 days (L1210) or 7 days (HeLa) using a CO2 incubator (37° C., 5% CO2). […]. SOR dissolved in a medium (200 μg/mL) was filtered ([…]), and serially diluted 2-fold, and the diluted products were added to wells in an amount of 10 μL/well such that the final concentration of SOR was 50 to 0.024 μg/mL. The cells of each line were incubated for 48 hours, and the growth of the cells was quantified using Cell Counting Kit-8 (Dojindo Laboratories Co., Ltd.) based on the WST-8 method according to manufacturer's protocol. Absorption at 450 nm was measured using a microplate reader, and a mean of triplicate data was plotted to prepare a concentration-response curve, followed by analysis using Prism software. […].
# [6] = system: Aplysia kurodai eggs; assay: Toxicity in Aplysia kurodai egg (influence on cleavage and development); format: in vivo
# Experimental: Eggs were taken out of a newly deposited egg mass of Aplysia kurodai, and influence on cleavage was examined using the collected eggs. Eggs were taken out of the egg mass in artificial seawater (ASW) and gently centrifuged by hand centrifuge apparatus. The precipitated eggs were rinsed with ASW twice. Filtered natural seawater was added to a 24-well plate (2 mL/well), to which SOR (10 μL/well) and subsequently the liquid containing the eggs (20 μL/well) were added. Then, egg development was observed under microscope every few hours. […] Untreated control eggs underwent the second cleavage 6 hours after fertilization and developed into morula in 24 hours; […].
# [7] = system: mice (ddY, male); format: in vivo; conditions: i.c.v.
# Experimental: Toxicity in mice was assessed by intracerebroventricularly injecting varying concentrations of SOR to mice (ddY, male, 3 to 4 weeks old, Japan SLC, Inc.) (Sakai et al., J Pharmacol Exp Ther. 2001; 296(2):650-8). […] […].
# [8] = system: Plasmid DNA (pTAC-1); assay: Cleavage of DNA by natural SOR, agarose electrophoresis; format: biochemical; conditions: SOR 8.8 μg/mL, with or without EDTA 12.5 mM, room temperature, 24 hours
# Experimental: Plasmid DNA (pTAC-1, 4 ng, BioDynamics Laboratory, Inc.), or the plasmid DNA and EDTA (12.5 mM) were added to and mixed with a hydrophobic interaction chromatography fraction containing SOR (8.8 μg/mL) or a Tris-HCl buffer (pH 8.3) containing 0.1 M NaCl. The mixture was left at room temperature for 24 hours, separated by agarose electrophoresis, stained with ethidium bromide (15 min), and subsequently observed under UV light (260 nm). Thermo scientific GeneRuler 1 kb DNA Ladder (Thermo Fisher Scientific Inc.) was used as a marker.
# [9] = system: HeLa cells (derived from human uterine cervix cancer); assay: Intracellular translocation into HeLa cell, confocal laser microscope; format: cell-based; conditions: overall conclusion
# Experimental: Whether SOR could translocate into cells and further into the nuclei was studied using fluorescently labeled SOR. […] Also, BSA labeled with FITC in the same manner as above was used as a control.
# The same experiment as in the section (1) was also conducted for HeLa cells (derived from human uterine cervix cancer). A HeLa suspension prepared at approximately 2.2×10^4 cells/mL was added at 270 μL/well to 8-well chamber cover glass (Eppendorf) to make approximately 6.0×10^3 cells/well, followed by preculture at 37° C. for 24 hours in a 5% CO2 incubator. […] The cells thus supplemented with the sample was subjected to fixing and permeabilization treatment over each time period from 30 minutes to 16 hours, and stained with DAPI. Then, a mount was prepared.
# [10] = Isoelectric point by two-dimensional polyacrylamide gel electrophoresis (2-DE); format: physicochemical; conditions: IPG Strip 3-6
# Experimental: Next, the isoelectric point of SOR was determined by two-dimensional polyacrylamide gel electrophoresis (2-DE). First, 443 μg of a sample was mixed with a rehydration solution (8 M urea, 0.5% 3-[(3-cholamidopropyl)dimethylammonio]-prop anesulfonic acid (CHAPS), 0.5% Bio-Lyte 3/10 (Bio-Rad Laboratories, Inc.), 0.2% dithiothreitol, 0.002% bromophenol blue). The obtained solution was applied to IPG Strip 3-6 (Bio-Rad Laboratories, Inc.). Isoelectric focusing electrophoresis was performed at 20° C. as follows: rehydration for 12 hours, 300 V for 30 minutes, 1000 V for 30 minutes, and 5000 V for 2 hours. After electrophoresis, the strip was equilibrated for 15 minutes with shaking in 2% SDS, 50 mM Tris-HCl, pH 8.8, 6 M urea, 30% glycerol, and 0.25% DTT. Subsequently, the strip was re-equilibrated for 15 minutes with shaking in 2% SDS, 50 mM Tris-HCl, pH 8.8, 6 M urea, 30% glycerol, and 4.5% iodoacetamide. The strip was put on a 12% polyacrylamide gel, and the second electrophoresis was performed in the same manner as in SDS-PAGE. The gel was stained with a silver staining kit (Wako Pure Chemical Industries, Ltd.).
molecule,measurement,setting,value
CO[C@H]1C[C@H](CC[C@H](C)[C@H](O)[C@H](C)[C@H]2OC(=O)/C=C/C(C)=C/C[C@H](O)C[C@@H]3C=CC[C@@H](C[C@H](OC)[C@@H](C)[C@@H](O)C[C@@H](O)[C@H](C)[C@@H]([C@@H](C)[C@@H](O)[C@@H](C)CC[C@H]4C[C@H](OC)C[C@H](C)O4)OC(=O)/C=C/C(C)=C/C[C@H](O)C[C@@H]4C=CC[C@@H](C[C@H](OC)[C@@H](C)[C@@H](O)C[C@@H](O)[C@@H]2C)O4)O3)O[C@@H](C)C1 [Swinholide A],IC50,[1],22 nM
C=CC[C@H](C)[C@H](C)C[C@@H](O)[C@H](O)[C@@H]1CC[C@@]2(C)O[C@@]3(C)C[C@@]4(C)O[C@H]5/C=C\C[C@H]6O[C@H]7C[C@H]8O[C@H]9C[C@@]%10(C)O[C@@](C)([C@@H]%11CC[C@H]%12O[C@@]%13(C)C[C@H]%14O[C@@]%15(C)C[C@H]%16O[C@@]%17(C)C[C@@H](O)[C@H]([C@@H]%18O[C@H]%19[C@H](O)[C@@H](O)[C@H](C[C@H](O)C[C@@H](O)[C@@H]%20O[C@H]%21[C@H](O)[C@@H](O)[C@H]([C@@H]%22O[C@@H]%23[C@H](O)[C@H]%24O[C@H]%25C[C@H]%26O[C@@H](C[C@H](O)[C@@H](O)[C@H]%27O[C@H]%28[C@H](O)[C@H]%29O[C@H]%30C[C@H]%31O[C@H]%32[C@@H](O)[C@@H](O)[C@H]([C@H](C)[C@H](O)[C@H](C)CC[C@H](OS(=O)(=O)[O-])[C@H](O)[C@H](C)C[C@@H](O)C(=C)/C(C)=C/CO)O[C@@H]%32[C@H](O)C[C@]%31(C)O[C@@H]%30C[C@]%29(C)O[C@@H]%28C[C@H]%27O)[C@H](OS(=O)(=O)[O-])[C@H](O)[C@@H]%26O[C@@H]%25C[C@@H]%24O[C@H]%23[C@H](O)[C@H]%22O)O[C@H]%21C[C@H]%20O)O[C@H]%19C[C@H]%18O)O[C@@H]%17[C@H](O)[C@]%16(C)O[C@@H]%15CC[C@]%14(C)O[C@@H]%13C[C@@H]%12O%11)[C@H](O)C[C@@H]%10O[C@]9(C)CC[C@]8(C)O[C@]7(C)C[C@@H]6O[C@@H]5C[C@@H]4O[C@@H]3C[C@@H]2O1.[Na+].[Na+] [Maito toxin],IC50,[2],~0.058 nM
same,Lethal dose,[3],37.9 pmol/kg
C=C1[C@@H](C)[C@H]2[C@H](Cc3ccccc3)NC(=O)[C@]23[C@H](OC(C)=O)/C=C/[C@@](C)(O)C(=O)[C@@H](C)C/C=C/[C@H]3[C@@H]1O [Cytochalasin D],IC50,[4]; Miranda et al. 1974,100 nM
CC(=O)O[C@H]1C(=O)[C@@]2(C)[C@H]([C@H](OC(=O)c3ccccc3)[C@]3(O)C[C@H](OC(=O)[C@H](O)[C@@H](NC(=O)c4ccccc4)c4ccccc4)C(C)=C1C3(C)C)[C@]1(OC(C)=O)CO[C@@H]1C[C@@H]2O [Paclitaxel],IC50,[4]; Liebmann et al. 1993,2.6 nM
soritesidine (protein) HFSLKRQDSSITHQTVSIFCITILLLSVSAYFPNSIPEAQAKLGDQRQIDIASWNTFDFGGKFGGVCKANDPTILQAMTDVISQHDVILVQEIANVTNPCNPANIFSGFNNLCSNNYLGGLGYLCQDTGIVGSGEGYGIIYKNNTGIGNVVIERTDNPNTVPYIPAGGGNNQMKRPPMKATLDFNAGAFNVVVYNAHTSPSGGVPKEIKLLSDRISPAHNPLDKNAVITLGDLNADGKRRLPNGQLDHGTDYYRGGFAAHPNDFPVSGWQQTVTDTDVTNFAQTLRAYDRMILSNATHNSYDEYGIIGGIPNPLPYPGGVYPAGTLFKNVHTGGGNTGKALSDHRLIWSKLNYGAIETTDNNGNTKSNFVEFTNPPQCTAPDTVYAKGADFVPNRTVDIYITKQPDNQNFIPLPQPQNPTNPGQFKQVGESYQLTDVRTTGKSTHNIDANGNIANTAVWVQPTPNQQYNLIVDVDRDGYFTNSIDIVDAFNTQGFDVDPCLRKRLAASLSDGIPAGDGTRDFVKPPKIFISGDWFPQGSARIYIIIYDKNFDYNGNDSKVLTDVRGTYDTITVGENHKFTGLEWSSPHVGNYNIIFDANSDGVYKKSDGDIVDHINEIGFAMLESYPHHSHIVDLDDNANQREDFNSGIAKNVYVLATNLPNPSTIVDVYVISEKLLKLNNPGWTTWQQSSNVPLKESAAPTNNGDRLHPTWVTPQKTVFGSVWHMPGDTFDPPYINYYGKKFTIVIDVNRDGKYDPSIDMVDTHDIGDMTDWFITQGHHDLSPTSGNGQPAVSEYKEYLNSKLDLENPLDNTNNYDAATEAASAQYLCRTNLPINLFENVIELGAQTGFIMFNPDEYYAGRDLNSGRHIYDAVDFDGLEINDGYTSVISAKEMTLNRLGVGQNSNLLTCGADTVTIDGMSTQKDSTTNIVAKTISHKSNISLEADTCTHYTHNLYFESDTNILVKAIESPFAWIIDVGDRILPGTGC,selectivity for the HeLa cells over the L1210 cells,[5],approximately 200 times
same,influence on egg cleavage and development,[6]; SOR 1.3 ng/mL,"overall shape of the cells was shrunken and bubble-like protrusions on the cell surface were often observed, though development progressed"
same,influence on egg cleavage and development,"[6]; SOR 1.3 μg/mL, 24 hours",only two blastomeres were observed even 24 hours later
same,influence on the morphology of the eggs,[6]; varying SOR concentrations,concentration-dependent influence on the morphology of the eggs
same,Lethal dose,[7],1.60 pmol/kg
same,acute toxicity,[7],no acute toxicity was observed
same,dosage causing lethal toxicity,[7],5.74 ng/mouse
same,time to death,[7]; 574 ng of SOR,18 h
same,time to loss of normal posture,[7]; 574 ng of SOR,17 h
same,time to loss of voluntary movement,[7]; 574 ng of SOR,14 h
same,eye observation after administration,[7]; 14 hours or later after administration,Reddish ring around eyes was observed
same,cleavage of DNA,[8],cleaved DNA in a metal ion-dependent manner
same,intracellular translocation,[9],intracellular translocation of SOR was confirmed
same,isoelectric point (pI),[10],approximately 4.5
